In the test the target is Haemophilus influenzae tellurite-resistance protein A (HiTehA) (Haemophilus influenzae) (UniProt P44741). As to the kind of experiment: cryo-EM structure; single-particle cryo-EM at 200 kV (Glacios, Falcon 4) of purified HiTehA at 3.0 mg/mL in detergent micelles (DDM, GDN, LMNG or OG); C3 symmetry imposed; no binding protein used.

Results on one substance are retold here after PMC11050165.

Take “Haemophilus influenzae tellurite-resistance protein A (HiTehA) (from UniProt P44741 1-328) (natural protein)”: the stoichiometry N – broadly, a count of units in the complex or per binding partner – came out at 3.
